Reference: the supplement of paper PMC10567573

B1: TCEB3B (parent)
chain: STTALGDKQRKANESKGTRESWDS

Variants of: B1
Assay: protein stability index of a GFP-peptide fusion (GPS, HEK-293T) (PSI 1-6); higher = more stable
Details: c terminus: a fixed tail appended
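Also: lentivirally expressed fusions sorted by FACS into six bins by GFP to DsRed ratio, PSI derived from sequencing read proportions per bin multiplied by bin number.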

| Variant | protein stability index |
| --- | --- |
| SDTALGDKQRKANESKGTRESWDS [T2D] | 4.01 |
| SWTALGDKQRKANESKGTRESWDS [T2W] | 3.16 |
| SLTALGDKQRKANESKGTRESWDS [T2L] | 3.67 |
| SYTALGDKQRKANESKGTRESWDS [T2Y] | 3.33 |
| SCTALGDKQRKANESKGTRESWDS [T2C] | 3.8 |
| SITALGDKQRKANESKGTRESWDS [T2I] | 3.29 |
| SATALGDKQRKANESKGTRESWDS [T2A] | 4.32 |
| SGTALGDKQRKANESKGTRESWDS [T2G] | 3.49 |
| SFTALGDKQRKANESKGTRESWDS [T2F] | 3.75 |
| SHTALGDKQRKANESKGTRESWDS [T2H] | 3.77 |
| SETALGDKQRKANESKGTRESWDS [T2E] | 4.05 |
| SSTALGDKQRKANESKGTRESWDS [T2S] | 4.09 |
| SPTALGDKQRKANESKGTRESWDS [T2P] | 3.94 |
| SQTALGDKQRKANESKGTRESWDS [T2Q] | 3.33 |
| SVTALGDKQRKANESKGTRESWDS [T2V] | 3.67 |
| SRTALGDKQRKANESKGTRESWDS [T2R] | 5.3 |
| SKTALGDKQRKANESKGTRESWDS [T2K] | 4.11 |
| SMTALGDKQRKANESKGTRESWDS [T2M] | 3.94 |
| SNTALGDKQRKANESKGTRESWDS [T2N] | 4.25 |
| STTAQGDKQRKANESKGTRESWDS [L5Q] | 4.57 |
| STTAYGDKQRKANESKGTRESWDS [L5Y] | 3.37 |
| STTAEGDKQRKANESKGTRESWDS [L5E] | 4.57 |
| STTAHGDKQRKANESKGTRESWDS [L5H] | 4.25 |
| STTANGDKQRKANESKGTRESWDS [L5N] | 4.14 |

| Variant | protein stability index |
| --- | --- |
| STTAWGDKQRKANESKGTRESWDS [L5W] | 3.64 |
| STTAMGDKQRKANESKGTRESWDS [L5M] | 3.88 |
| STTASGDKQRKANESKGTRESWDS [L5S] | 4.25 |
| STTACGDKQRKANESKGTRESWDS [L5C] | 3.44 |
| STTADGDKQRKANESKGTRESWDS [L5D] | 4.22 |
| STTAGGDKQRKANESKGTRESWDS [L5G] | 4.11 |
| STTAIGDKQRKANESKGTRESWDS [L5I] | 3.17 |
| STTAAGDKQRKANESKGTRESWDS [L5A] | 4.37 |
| STTARGDKQRKANESKGTRESWDS [L5R] | 4.03 |
| STTAPGDKQRKANESKGTRESWDS [L5P] | 4.37 |
| STTAKGDKQRKANESKGTRESWDS [L5K] | 4.37 |
| STTAVGDKQRKANESKGTRESWDS [L5V] | 4.08 |
| STTATGDKQRKANESKGTRESWDS [L5T] | 4.63 |
| STTAFGDKQRKANESKGTRESWDS [L5F] | 3.29 |
| QTTALGDKQRKANESKGTRESWDS [S1Q] | 3.67 |
| KTTALGDKQRKANESKGTRESWDS [S1K] | 3.12 |
| YTTALGDKQRKANESKGTRESWDS [S1Y] | 3.6 |
| ITTALGDKQRKANESKGTRESWDS [S1I] | 3.58 |
| LTTALGDKQRKANESKGTRESWDS [S1L] | 3.67 |
| HTTALGDKQRKANESKGTRESWDS [S1H] | 3.64 |
| NTTALGDKQRKANESKGTRESWDS [S1N] | 4.3 |
| ATTALGDKQRKANESKGTRESWDS [S1A] | 3.94 |
| VTTALGDKQRKANESKGTRESWDS [S1V] | 4.06 |
| PTTALGDKQRKANESKGTRESWDS [S1P] | 3.77 |

| Variant | protein stability index |
| --- | --- |
| GTTALGDKQRKANESKGTRESWDS [S1G] | 3.9 |
| MTTALGDKQRKANESKGTRESWDS [S1M] | 4.22 |
| WTTALGDKQRKANESKGTRESWDS [S1W] | 2.74 |
| CTTALGDKQRKANESKGTRESWDS [S1C] | 3.47 |
| ETTALGDKQRKANESKGTRESWDS [S1E] | 3.85 |
| DTTALGDKQRKANESKGTRESWDS [S1D] | 4.16 |
| RTTALGDKQRKANESKGTRESWDS [S1R] | 3.88 |
| TTTALGDKQRKANESKGTRESWDS [S1T] | 3.61 |
| FTTALGDKQRKANESKGTRESWDS [S1F] | 2.81 |
| STTALHDKQRKANESKGTRESWDS [G6H] | 3.78 |
| STTALTDKQRKANESKGTRESWDS [G6T] | 3.81 |
| STTALEDKQRKANESKGTRESWDS [G6E] | 4.31 |
| STTALLDKQRKANESKGTRESWDS [G6L] | 4.08 |
| STTALPDKQRKANESKGTRESWDS [G6P] | 4.34 |
| STTALIDKQRKANESKGTRESWDS [G6I] | 3.59 |
| STTALKDKQRKANESKGTRESWDS [G6K] | 3.3 |
| STTALMDKQRKANESKGTRESWDS [G6M] | 3.93 |
| STTALSDKQRKANESKGTRESWDS [G6S] | 3.85 |
| STTALCDKQRKANESKGTRESWDS [G6C] | 3.74 |
| STTALQDKQRKANESKGTRESWDS [G6Q] | 3.83 |
| STTALWDKQRKANESKGTRESWDS [G6W] | 3.29 |
| STTALDDKQRKANESKGTRESWDS [G6D] | 4.12 |
| STTALNDKQRKANESKGTRESWDS [G6N] | 4.38 |
| STTALYDKQRKANESKGTRESWDS [G6Y] | 3.68 |

| Variant | protein stability index |
| --- | --- |
| STTALVDKQRKANESKGTRESWDS [G6V] | 2.98 |
| STTALFDKQRKANESKGTRESWDS [G6F] | 3.12 |
| STTALADKQRKANESKGTRESWDS [G6A] | 3.65 |
| STTALRDKQRKANESKGTRESWDS [G6R] | 4.07 |
| STTHLGDKQRKANESKGTRESWDS [A4H] | 3.82 |
| STTDLGDKQRKANESKGTRESWDS [A4D] | 4.14 |
| STTPLGDKQRKANESKGTRESWDS [A4P] | 3.88 |
| STTMLGDKQRKANESKGTRESWDS [A4M] | 3.54 |
| STTELGDKQRKANESKGTRESWDS [A4E] | 4.14 |
| STTWLGDKQRKANESKGTRESWDS [A4W] | 3.62 |
| STTYLGDKQRKANESKGTRESWDS [A4Y] | 3.36 |
| STTNLGDKQRKANESKGTRESWDS [A4N] | 4.18 |
| STTGLGDKQRKANESKGTRESWDS [A4G] | 3.75 |
| STTQLGDKQRKANESKGTRESWDS [A4Q] | 3.9 |
| STTTLGDKQRKANESKGTRESWDS [A4T] | 4.46 |
| STTRLGDKQRKANESKGTRESWDS [A4R] | 3.34 |
| STTFLGDKQRKANESKGTRESWDS [A4F] | 3.56 |
| STTCLGDKQRKANESKGTRESWDS [A4C] | 3.86 |
| STTILGDKQRKANESKGTRESWDS [A4I] | 3.65 |
| STTLLGDKQRKANESKGTRESWDS [A4L] | 3.49 |
| STTSLGDKQRKANESKGTRESWDS [A4S] | 3.81 |
| STTVLGDKQRKANESKGTRESWDS [A4V] | 3.96 |
